Data taken from PMC12416549 (2024).

T1: TNFR1 (Homo sapiens, UniProt P19438)
T1 chain: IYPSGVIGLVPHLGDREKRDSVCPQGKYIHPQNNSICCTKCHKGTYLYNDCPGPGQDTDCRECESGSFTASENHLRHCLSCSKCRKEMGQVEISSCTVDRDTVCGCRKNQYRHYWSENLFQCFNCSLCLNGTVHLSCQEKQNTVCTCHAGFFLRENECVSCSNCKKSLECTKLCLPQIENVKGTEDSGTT


Molecular target: T1, TNFR1
Assay: yeast display SC50

| apparent Kd (screen) [nM] | Binder |
| --- | --- |
| 2.05 | A11L (designed binder) MTLQELLREELLRRAEAEAFRYALELLAEKFPEQKEYLLDLAEEIESQIRSLSGVDVEDVRKFLDKEWAWVKELLAEHPAELAEVEAARAARLAELRAEVEAKVAA |
| 1.69 | L93P (designed binder) MTLQELLREEALRRAEAEAFRYALELLAEKFPEQKEYLLDLAEEIESQIRSLSGVDVEDVRKFLDKEWAWVKELLAEHPAELAEVEAARAARPAELRAEVEAKVAA |
| 12.5 | L74R (designed binder) MTLQELLREEALRRAEAEAFRYALELLAEKFPEQKEYLLDLAEEIESQIRSLSGVDVEDVRKFLDKEWAWVKERLAEHPAELAEVEAARAARLAELRAEVEAKVAA |
| 0.539 | E36L (designed binder) MTLQELLREEALRRAEAEAFRYALELLAEKFPEQKLYLLDLAEEIESQIRSLSGVDVEDVRKFLDKEWAWVKELLAEHPAELAEVEAARAARLAELRAEVEAKVAA |
| 0.49 | P79W (designed binder) MTLQELLREEALRRAEAEAFRYALELLAEKFPEQKEYLLDLAEEIESQIRSLSGVDVEDVRKFLDKEWAWVKELLAEHWAELAEVEAARAARLAELRAEVEAKVAA |
| 0.446 | K30V (designed binder) MTLQELLREEALRRAEAEAFRYALELLAEVFPEQKEYLLDLAEEIESQIRSLSGVDVEDVRKFLDKEWAWVKELLAEHPAELAEVEAARAARLAELRAEVEAKVAA |
| 0.304 | S51H (designed binder) MTLQELLREEALRRAEAEAFRYALELLAEKFPEQKEYLLDLAEEIESQIRHLSGVDVEDVRKFLDKEWAWVKELLAEHPAELAEVEAARAARLAELRAEVEAKVAA |
| 0.718 | I45W (designed binder) MTLQELLREEALRRAEAEAFRYALELLAEKFPEQKEYLLDLAEEWESQIRSLSGVDVEDVRKFLDKEWAWVKELLAEHPAELAEVEAARAARLAELRAEVEAKVAA |
| 1.05 | F20S (designed binder) MTLQELLREEALRRAEAEASRYALELLAEKFPEQKEYLLDLAEEIESQIRSLSGVDVEDVRKFLDKEWAWVKELLAEHPAELAEVEAARAARLAELRAEVEAKVAA |
| 0.956 | E43Q (designed binder) MTLQELLREEALRRAEAEAFRYALELLAEKFPEQKEYLLDLAQEIESQIRSLSGVDVEDVRKFLDKEWAWVKELLAEHPAELAEVEAARAARLAELRAEVEAKVAA |
| 0.49 | E29R (designed binder) MTLQELLREEALRRAEAEAFRYALELLARKFPEQKEYLLDLAEEIESQIRSLSGVDVEDVRKFLDKEWAWVKELLAEHPAELAEVEAARAARLAELRAEVEAKVAA |
| 0.79 | R61S (designed binder) MTLQELLREEALRRAEAEAFRYALELLAEKFPEQKEYLLDLAEEIESQIRSLSGVDVEDVSKFLDKEWAWVKELLAEHPAELAEVEAARAARLAELRAEVEAKVAA |
| 11.4 | G54H (designed binder) MTLQELLREEALRRAEAEAFRYALELLAEKFPEQKEYLLDLAEEIESQIRSLSHVDVEDVRKFLDKEWAWVKELLAEHPAELAEVEAARAARLAELRAEVEAKVAA |
| 0.869 | A80S (designed binder) MTLQELLREEALRRAEAEAFRYALELLAEKFPEQKEYLLDLAEEIESQIRSLSGVDVEDVRKFLDKEWAWVKELLAEHPSELAEVEAARAARLAELRAEVEAKVAA |
| 0.49 | R21Y (designed binder) MTLQELLREEALRRAEAEAFYYALELLAEKFPEQKEYLLDLAEEIESQIRSLSGVDVEDVRKFLDKEWAWVKELLAEHPAELAEVEAARAARLAELRAEVEAKVAA |
| 0.49 | K66L (designed binder) MTLQELLREEALRRAEAEAFRYALELLAEKFPEQKEYLLDLAEEIESQIRSLSGVDVEDVRKFLDLEWAWVKELLAEHPAELAEVEAARAARLAELRAEVEAKVAA |
| 13.8 | L64V (designed binder) MTLQELLREEALRRAEAEAFRYALELLAEKFPEQKEYLLDLAEEIESQIRSLSGVDVEDVRKFVDKEWAWVKELLAEHPAELAEVEAARAARLAELRAEVEAKVAA |
| 0.718 | L12T (designed binder) MTLQELLREEATRRAEAEAFRYALELLAEKFPEQKEYLLDLAEEIESQIRSLSGVDVEDVRKFLDKEWAWVKELLAEHPAELAEVEAARAARLAELRAEVEAKVAA |

| apparent Kd (screen) [nM] | Binder |
| --- | --- |
| 0.79 | L38H (designed binder) MTLQELLREEALRRAEAEAFRYALELLAEKFPEQKEYHLDLAEEIESQIRSLSGVDVEDVRKFLDKEWAWVKELLAEHPAELAEVEAARAARLAELRAEVEAKVAA |
| 5.31 | F63K (designed binder) MTLQELLREEALRRAEAEAFRYALELLAEKFPEQKEYLLDLAEEIESQIRSLSGVDVEDVRKKLDKEWAWVKELLAEHPAELAEVEAARAARLAELRAEVEAKVAA |
| 0.869 | E9V (designed binder) MTLQELLRVEALRRAEAEAFRYALELLAEKFPEQKEYLLDLAEEIESQIRSLSGVDVEDVRKFLDKEWAWVKELLAEHPAELAEVEAARAARLAELRAEVEAKVAA |
| 0.446 | A17T (designed binder) MTLQELLREEALRRAETEAFRYALELLAEKFPEQKEYLLDLAEEIESQIRSLSGVDVEDVRKFLDKEWAWVKELLAEHPAELAEVEAARAARLAELRAEVEAKVAA |
| 0.539 | A91V (designed binder) MTLQELLREEALRRAEAEAFRYALELLAEKFPEQKEYLLDLAEEIESQIRSLSGVDVEDVRKFLDKEWAWVKELLAEHPAELAEVEAARAVRLAELRAEVEAKVAA |
| 0.49 | A87H (designed binder) MTLQELLREEALRRAEAEAFRYALELLAEKFPEQKEYLLDLAEEIESQIRSLSGVDVEDVRKFLDKEWAWVKELLAEHPAELAEVEHARAARLAELRAEVEAKVAA |
| 0.539 | Y37K (designed binder) MTLQELLREEALRRAEAEAFRYALELLAEKFPEQKEKLLDLAEEIESQIRSLSGVDVEDVRKFLDKEWAWVKELLAEHPAELAEVEAARAARLAELRAEVEAKVAA |
| 2.73 | L52N (designed binder) MTLQELLREEALRRAEAEAFRYALELLAEKFPEQKEYLLDLAEEIESQIRSNSGVDVEDVRKFLDKEWAWVKELLAEHPAELAEVEAARAARLAELRAEVEAKVAA |
| 0.79 | Y22A (designed binder) MTLQELLREEALRRAEAEAFRAALELLAEKFPEQKEYLLDLAEEIESQIRSLSGVDVEDVRKFLDKEWAWVKELLAEHPAELAEVEAARAARLAELRAEVEAKVAA |
| 0.49 | L27R (designed binder) MTLQELLREEALRRAEAEAFRYALELRAEKFPEQKEYLLDLAEEIESQIRSLSGVDVEDVRKFLDKEWAWVKELLAEHPAELAEVEAARAARLAELRAEVEAKVAA |
| 0.304 | I49H (designed binder) MTLQELLREEALRRAEAEAFRYALELLAEKFPEQKEYLLDLAEEIESQHRSLSGVDVEDVRKFLDKEWAWVKELLAEHPAELAEVEAARAARLAELRAEVEAKVAA |
| 0.49 | R21P (designed binder) MTLQELLREEALRRAEAEAFPYALELLAEKFPEQKEYLLDLAEEIESQIRSLSGVDVEDVRKFLDKEWAWVKELLAEHPAELAEVEAARAARLAELRAEVEAKVAA |
| 0.405 | E9W (designed binder) MTLQELLRWEALRRAEAEAFRYALELLAEKFPEQKEYLLDLAEEIESQIRSLSGVDVEDVRKFLDKEWAWVKELLAEHPAELAEVEAARAARLAELRAEVEAKVAA |
| 0.653 | A15F (designed binder) MTLQELLREEALRRFEAEAFRYALELLAEKFPEQKEYLLDLAEEIESQIRSLSGVDVEDVRKFLDKEWAWVKELLAEHPAELAEVEAARAARLAELRAEVEAKVAA |
| 0.49 | E33R (designed binder) MTLQELLREEALRRAEAEAFRYALELLAEKFPRQKEYLLDLAEEIESQIRSLSGVDVEDVRKFLDKEWAWVKELLAEHPAELAEVEAARAARLAELRAEVEAKVAA |
| 0.49 | E25G (designed binder) MTLQELLREEALRRAEAEAFRYALGLLAEKFPEQKEYLLDLAEEIESQIRSLSGVDVEDVRKFLDKEWAWVKELLAEHPAELAEVEAARAARLAELRAEVEAKVAA |
| 0.79 | R8T (designed binder) MTLQELLTEEALRRAEAEAFRYALELLAEKFPEQKEYLLDLAEEIESQIRSLSGVDVEDVRKFLDKEWAWVKELLAEHPAELAEVEAARAARLAELRAEVEAKVAA |
